Assay results taken from patent US8728749B2, “Detection of LCAT activity” (priority 2010, dated 2014).

target: T1, rhLCAT (Homo sapiens, UniProt P04180); assay: LCAT activating potential of LCAT-activating peptides in mHDL substrate (DHE fluorescence / cholesterol oxidase assay); format: biochemical; details: specific activity of rhLCAT with peptide/POPC/DHE substrate, 50 μM DHE, relative to SEQ ID NO: 1
T1 construct: made in house; host or cells: HEK293f cells, stably transfected with pcDNA3.1/Hygro carrying the LCAT insert from Origene pCMV6-XL4/LCAT
T1 sequence (P04180 25-440): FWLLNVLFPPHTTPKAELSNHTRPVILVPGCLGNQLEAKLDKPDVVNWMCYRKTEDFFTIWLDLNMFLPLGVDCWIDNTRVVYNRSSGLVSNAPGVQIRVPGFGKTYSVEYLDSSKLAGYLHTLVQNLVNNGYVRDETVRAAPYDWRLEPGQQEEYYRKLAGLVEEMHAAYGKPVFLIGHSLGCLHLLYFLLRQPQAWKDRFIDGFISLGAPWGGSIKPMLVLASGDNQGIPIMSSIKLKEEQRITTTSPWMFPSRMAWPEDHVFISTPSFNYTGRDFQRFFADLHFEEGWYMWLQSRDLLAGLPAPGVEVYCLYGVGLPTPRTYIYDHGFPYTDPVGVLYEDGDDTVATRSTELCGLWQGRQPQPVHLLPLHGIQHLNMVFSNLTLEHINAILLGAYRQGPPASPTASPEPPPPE
Protocol: Recombinant human LCAT (rhLCAT), isolated from cells expressing human LCAT (Example 5), was diluted into phosphate buffer containing 5 mM β-mercaptoethanol and 60 μM bovine serum albumin to obtain rhLCAT concentrations that would deliver the indicated mass of rhLCAT to assay samples in a 5 μL volume. Substrate, prepared as in Example 1, was diluted to 62.5 μM DHE with phosphate buffer containing 5 mM β-mercaptoethanol and 60 μM bovine serum albumin. One hundred microliter volumes of the diluted substrate were added to individual wells of a black, polystyrene 96-well plate (Whatman 7701-2350) which had previously been loaded with 5 μL of rhLCAT. Blank and control wells were not loaded with rhLCAT. The plate was covered and incubated at 37° C. for one hour. The reaction was quenched by the addition of 25 μL phosphate buffer containing 2% Triton X-100 and 5 units/ml COx (Streptomyces sp.) to all wells except control wells, which received 2% Triton X-100 without COx. The plate was returned to the incubator for one hour, then equilibrated to 37° C. in the plate reader and scanned for DHE fluorescence. Percent fluorescence was calculated from the ratio of the average fluorescence of duplicate wells treated with COx to the average fluorescence of the control wells. The amount of fluorescence remaining after oxidation is directly proportional to the amount of DHE esterified by LCAT. The line represents the fit of the data by linear regression. (FIG. 4).
(§1) Two microliter aliquots of plasma were added to separate assay wells followed by 100 microliters of substrate (Example 2). The assay plate was incubated for 2 hours at 37° C. followed by quenching with COx (Example 2). The nmoles DHE ester formed in each sample was calculated by subtracting the average fluorescence of the blank wells from the fluorescence of each sample well to obtain net fluorescence. The average net fluorescence of sample wells at each rhLCAT level was then divided by the average net fluorescence of control wells and multiplied by the DHE per well, which was 6.25 nmoles, to yield the nmoles of DHE ester formed. The line represents the fit of the data by linear regression. The activity detected at 0 μg/ml rhLCAT (Y-intercept) is the activity of endogenous mouse LCAT in the plasma (FIG. 5).
LCAT-activating peptides, which are produced by solid-phase synthesis (GenScript USA, Inc), are dissolved in methanol at 5 mM concentration. Three hundred and ninety seven microliters of 5 mM LAP and 357 microliters of a chloroform solution containing 25 mM POPC and 2.8 mM DHE are added to a glass vial. The solvents are evaporated by directing a gentle stream of inert gas (e.g. nitrogen) into the vial. Residual solvent is removed by high vacuum for 2 hours. The dried mixture is dispersed in 2 milliliters of phosphate buffer (150 mM NaCl, 50 mM sodium phosphate, 1 mM EDTA, pH 7.4) to obtain a final DHE concentration of 0.5 mM. The vial is flushed with inert gas and capped after buffer addition. The dispersion is obtained by vortexing and brief (10 to 30 seconds) sonication in a water bath sonicator. The substrate is protected from light and stored with inert gas in the capped vial at 2-8° C.
The LCAT activating potential of LAP is determined with the protocol described in Example 2 at a DHE concentration of 50 μM and with the rhLCAT concentrations indicated. A linear regression fit of nmoles DHE ester formed, calculated as in Example 3, versus rhLCAT in the sample yields the specific activity (nmol DHE ester/μg LCAT/hour) of rhLCAT with substrate. This protocol was used to compare and characterize the LCAT activating potential of amphipathic peptides with mean hydrophobicities and mean hydrophobic moments that were sufficient to enable the peptides to form stable micelle complexes with phosphatidylcholine and DHE (Table 3).

RELATIVE ACTIVITY (Percent activity relative to SEQ ID: 1)	Substance
43%	10 (EWLKAFYEKVLEKLKELF) [compound 10]
21%	12 (EVLKNLLEKLLEKLKELF) [compound 12]
55%	9 (EWLKAFLEKVLEKLKELF) [compound 9]
0%	14 (DVFQALKELFAQLLEKWKQV) [compound 14]
56%	7 (PVLDLFKELLEELFQKLKK) [compound 7]
0%	13 (DLWQRLLELFNELLEKLKQALK) [compound 13]
15%	8 (PVLDKFLELLEELFQKLKK) [compound 8]
28%	11 (DWLKAFYDKVFEKFKEFF) [compound 11]

The next lines start with the substance.

Substance	RELATIVE ACTIVITY (Percent activity relative to SEQ ID: 1)
4 (PVLDLFRELLNELLQKLKK) [compound 4]	86%
3 (PSLDLFRELLNELLEALKQKLK) [compound 3]	87%
6 (PVLDLFRELLEELLQKLKK) [compound 6]	65%
5 (PTLDLFRELLNELLQKLKK) [compound 5]	65%
2 (PTLDLFRELLNELLEALKQKLK) [compound 2]	94%

tested on: not listed separately; assay: Time course of LCAT activity in plasma from mice injected intravenously with rhLCAT; format: in vivo, transgenic mice expressing human apoA-I; details: intravenous, 10 mg/kg (30×), plasma collected at 1 hour post-dose
Protocol: as §1
The utility of the current invention to measure LCAT activity changes in vivo as a result of rhLCAT injection is shown in FIG. 6. Transgenic mice expressing human apoA-I (Jackson Laboratories) and maintained on chow diet were injected (intravenous) with rhLCAT in normal saline at doses of 1 mg/kg (3×), 3 mg/kg (10×) or 10 mg/kg (30×). Control animals were injected with saline alone. Plasma was prepared from blood samples collected at 0.1, 1, 5 and 24 hours following LCAT injection. […]

Substance	increase in LCAT activity in plasma
rhLCAT: recombinant human LCAT isolated from culture medium of HEK293f cells expressing human LCAT	11 fold
